Measurements taken from US8722732B2, “Oligomer-calcimimetic conjugates and related compounds” (Nektar Therapeutics, priority 2009, dated 2014).
Where two headings read alike, the source gives them in different places.

Tests used:
[1] = Hydrolysis / pharmacokinetics in an in vivo dog study; settings: male, beagle, plasma, po, 10 mg/kg
Protocol: (§1) Briefly, cinacalcet hydrochloride was administered orally to three male beagle dogs to provide a cinacalcet equivalent dose of 2.0 mg/kg. […] For both the cohorts, blood was collected at the following time points: 0 (predose); 10 min, 1, 2, 4, 8, 24, 48, 72, 120 and 144 h.

CYP2D6 = CYP2D6 (Homo sapiens, UniProt P10635); settings: background statement; cited from earlier work
[2] = tested on: plasma PTH (parathyroid hormone) levels; assay: In vivo screen, PTH-lowering effects in normal rats (plasma PTH by ELISA); design: species or system rat
Protocol: PEG-Cinacalcet calcimmetic effects were studied in PTH (parathyroid hormone)-lowering experiments in normal rats. Male SD rats (˜350 g) were IV dosed with different compounds at 1 mg/kg or orally (“PO”) cinacalcet at 10 mg/kg. Plasma samples were collected and prepared at different timepoints (up to 72 hours) after drug administration. The plasma PTH levels were quantified by ELISA.

[3] = Hydrolysis / pharmacokinetics in an in vivo rat study (plasma concentration-time profiles); settings: male, po, 10 mg/kg
Protocol: (§2) Compound (15), Compound (20), Compound (16), Compound (21), Compound (24), Compound (25), Compound (28) and Compound (29), prepared in accordance with Examples, 5, 7, 6, 8, 9, 10, 11 and 12 respectively, were separately administered intravenously to four male rats to provide a cinacalcet equivalent dose of 1 mg/kg. Parent compound cinacalcet prepared in DMSO at 1 mg/kg was separately administrated intravenously to four male rats. For these cohorts, blood was collected at the following time points: 0 (predose), 2 minutes, 10 minutes, 1 hour, 2 hours, 4 hours, 8 hours, 24 hours, 48 hours and 72 hours following administration.

[4] = rat, in vivo, 1 mg/kg; for AUCall / Clearance: iv
Protocol: as §2

[5] = tested on: plasma PTH (parathyroid hormone) levels; assay: In vivo screen, rat chronic renal insufficiency (CRI) model, 5/6 nephrectomy; settings: 5/6 Nx rats, 6-8 weeks post surgery
Description: The approach set forth in Example 14 is repeated except rats were surgically modified to mimic chronic renal insufficiency through the total removal of one kidney and ⅔ of the other kidney (a 5/6 nephrectomy or “5/6Nx”). […] Parathyroid hormone levels in normal rats are around 100 pg/ml and in 5/6 Nx rats they increase to 500-1000 pg/ml.

[6] = dog, in vivo
Protocol: as §1

[7] = Hydrolysis of compounds in pH 7.4 PBS buffer at 37° C. (HPLC); type: physicochemical
Protocol: The solution was placed into ten different HPLC vials and the HPLC vials were put into a 37° C. incubator. The samples were analyzed by HPLC at different timepoints. When hydrolysis occurred, HPLC confirmed that cinacalcet was released unaltered.

Chain of CYP2D6 (P10635 whole entry): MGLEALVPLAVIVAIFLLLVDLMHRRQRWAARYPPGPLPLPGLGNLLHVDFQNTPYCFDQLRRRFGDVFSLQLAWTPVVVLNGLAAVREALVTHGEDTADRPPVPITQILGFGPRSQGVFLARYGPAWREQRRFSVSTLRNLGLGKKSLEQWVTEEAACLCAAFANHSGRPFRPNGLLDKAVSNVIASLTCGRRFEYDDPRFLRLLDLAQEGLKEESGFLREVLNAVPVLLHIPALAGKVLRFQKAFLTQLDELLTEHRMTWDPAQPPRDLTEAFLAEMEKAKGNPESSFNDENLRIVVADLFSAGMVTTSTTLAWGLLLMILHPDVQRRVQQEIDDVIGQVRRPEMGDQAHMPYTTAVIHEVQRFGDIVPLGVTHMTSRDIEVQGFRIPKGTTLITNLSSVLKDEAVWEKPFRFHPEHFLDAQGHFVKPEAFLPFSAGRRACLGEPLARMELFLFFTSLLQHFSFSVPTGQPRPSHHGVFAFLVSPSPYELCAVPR

Compound	PTH-lowering effect (in words) ([2]; IV, 1 mg/kg)	time at which animal PTH levels return to baseline ([2]; IV, 1 mg/kg) [h]	cinacalcet release after intravenous administration (in words) [4]	time for which release of cinacalcet continues following intravenous administration [4] [h]	t1/2 in PBS [7] [h]	other results
C[C@@H](NCCCc1cccc(C(F)(F)F)c1)c1cccc2ccccc12 [cinacalcet]	–	–	–	–	–	AUC [1]: 17.8 ng·h/mL; Cmax [1]: 6.01 ng/mL; Vd/F [1]: 294 L/kg; half-life [1]: 1.77 h; CYP2D6 inhibition (CYP2D6): inhibitor of CYP2D6; PTH-lowering effect lasts up to ([2]; PO, 10 mg/kg): ~12 h; AUC [3]: 690 ng·h/mL; Cmax [3]: 97.4 ng/mL; half-life [3]: 2.98 h
Four-arm-PEG20k-D-valine-acyloxymethyl-carbamate-cinacalcet [Compound (29)]	variable PTH-lowering effects	~24	relatively significant amounts of cinacalcet release	8 to 12	–	–
Four-arm-PEG20k-L-leucine-acyloxymethyl-carbamate-cinacalcet [Compound (21)]	significant PTH-lowering effects	–	–	–	–	AUCall [4]: 5730 ng·min/mL; Clearance [4]: 206 mL/min/kg
Four-arm-PEG20k-L-valine-acyloxymethyl-carbamate-cinacalcet [Compound (25)]	variable PTH-lowering effects	~24	relatively significant amounts of cinacalcet release	8 to 12	–	–
Four-arm-PEG20k-glycine-amide-cinacalcet [Compound (16)]	–	–	–	–	–	reduction of PTH levels (in words) [5]: PTH levels are not reduced as significantly as Compounds (25), (28), and (29)
Four-arm-PEG30k-L-leucine-acyloxymethyl-carbamate-cinacalcet [Compound (31)]	–	–	–	–	–	Cmax versus cinacalcet (in words) [6]: blunted; half-life versus cinacalcet (in words) [6]: increased; time up to which therapeutically relevant levels of cinacalcet are released ([6]; iv): up to 72 hours; AUCall ([6]; iv, 1 mg/kg): 176 ng·h/mL; Clearance ([6]; iv, 1 mg/kg): 43.33 mL/min/kg; T1/2 ([6]; iv, 1 mg/kg): 0.432 h; Vz(F) ([6]; iv, 1 mg/kg): 97.2 L/kg
mPEG10k-D-valine-acyloxymethyl-carbamate-cinacalcet [Compound (28)]	variable PTH-lowering effects	~24	relatively significant amounts of cinacalcet release	8 to 12	~208	–
mPEG10k-L-isoleucine-acyloxymethyl-carbamate-cinacalcet [(36)]	–	–	–	–	~470	–
mPEG10k-L-leucine-acyloxymethyl-carbamate-cinacalcet [Compound (20)]	significant PTH-lowering effects	–	–	–	~126	PTH-lowering effect lasts up to ([2]; IV, 1 mg/kg): 24 to 48 h; AUCall [4]: 11200 ng·min/mL; Clearance [4]: 100 mL/min/kg
mPEG10k-L-valine-acyloxymethyl-carbamate-cinacalcet [Compound (24)]	variable PTH-lowering effects	~24	relatively significant amounts of cinacalcet release	8 to 12	~317	–
